Four molecules from patent publication US9371519B2, “Complex type sugar chain hydrolase” (National Institute of Advanced Industrial Science and …, priority 2011, dated 2016) can be followed below.

To fix the notation:
B1: Endo-Zr: endo-β-N-acetylglucosaminidase from Zygosaccharomyces rouxii ATCC2623, amino acid sequence SEQ ID NO. 13, 639 amino acids (protein, listed as Zygosaccharomyces rouxii)
chain: MKRINQVPGKPEITSLYFDDLNSLQRWFDKGFMDSRDLSNVPKERYSNYVKFEKDSIITIPNLSARKTEIIVCHDFKGGYQSGHDLYPNGQYGTESCKPYSLRYPEIVDKFVYFSHHCVTIPPSPWTNYLHRHSIPVLGTLILEHYPHNGELFKKNAKGEFLYVKYLVELCRKFHFEGWLINFETVFGNNSKQVIPFLRELTARVECEIYGGSVIWYDAFTTFSNKPSHQNEVNLFNYDAYENSSQFMTNYMWDSHNVGNSLRNVGALGMHSHVALGVDVWGRNMQVCRGGFESNIAIYYAKRFGTNAVIFAPGWTYENFGEDQFYEKDDIFWGNIKSTLQLDSYSDSQLSSWFVSESKKTRYFTTFFSTGSGNFFNLNGRRISNDNWVQLGLSTPFPVNSHSYLSFKDSFVGGSCLALPLSPMENGKLHLFRFEQFIKDQQKTSDSEIRVKLSYKSLGALPPVKLVIKCFVIRRGKRSKTILKVDDVSLVLPLSHSACQTAQGSTKWAVVEQIVPLPSLESRFLEEYYVEDAHLEWTMDNNHDEWLMVPERTEDLDCKLLIGSLCLEIGPHEDNNKRQIVRNGPQLSWQDNESSFMWLKLQDGKLDSVLFTPTTKVNGKQPTILECGRNGTLKFVVKK
B2: Endo-Om: endo-β-N-acetylglucosaminidase from methylotrophic yeast Ogataea minuta IFO10746, amino acid sequence SEQ ID NO. 1, 772 amino acids (protein, listed as Ogataea minuta)
chain: MAQSQLLGGAVRPVFFDKLEELRRWHTQSANLSRESELDSLNVATEPFSSYERAQTGSGSRSSEPVPGDKEDPPIKLMVCHDFKGGYQDYEDAQPLGYFPHPTGSRYFLQYPQLIDQFVYFSHHRVTVPPVNWINFCHRNGIKCFGTVIFEGNASKDFEELDRLVSRDEKGDFVFVDALIKLAAHYGFDGYLLNIETTFSNTKIAADLEPFAEQLKSGLHCLDSKNELIWYDSYVFPANKVSYTNGVTESNYNFFSLSDAFFSNYWWNIKNLQENIKNVGVLGVQKKIYVGYDVWGRGTLVGKGGFDSSLACKMIAKFKSNVALFAPAWTYESLGPKDFNQNDARFWIGLFENESSISSTVPPHSSAVYKINESSFIFYTNFSSGEGNRFFSKGSEVYRKNWVNGSLQFDLPIDLHRKDKNGLQWALDKSDAFHGGACLEIKYSEIKDENGYQIFNNQMVSDFTLFNFTKECHFPTVNVKVTYKLNHKTKSTFKIKIKYIIERRFRSVQTVRTGYLTIPLLSTSGKWFTVEESFQINLQTSHEYIVLESAHVTYDEDRSADSFFRSYIVEDSAITSVIDNEEYEKLINSEIYNDDEDEDWILVPSDVSISSSESQSNDSKTQYLGRKLFGNKSTPKTRTLEGTAPLLRIGEFAIISANNYPSSNFLAVTSVKSIESSRLEGDSLVLLNWQVGEGHQKGVCYYIIYVNGAVVGLSVAPKFIYQDTELASENSASARSNYKKSGLGSSSDRKSKVRVDSVDKLGNVFTGSEVWV
B3: Endo-Pa: endo-β-N-acetylglucosaminidase from Pichia anomala ATCC36904, amino acid sequence SEQ ID NO. 9, 656 amino acids (protein, listed as Pichia anomala)
chain: MQHDHAAIKFEEDSISSQRFSSLDEVEKWYNTKNRSPLDDLRIPRESLSHYNRFRDNNDEIKVLVCHDFKGNYQEGEDENPLGYFPHSSGQHYFIQFPSLVDLFIFFSHYKIAVPPVSWINSLHRQGIPVLGTLIFEGTDVSESDKLLEKNENGDFKYLEILCELVRHYGFDGWLVNMESHFSSVAKAQDLLLFDEALRSTLHLKVPGSKLIWYDSLITQKNRVFYQNAVNEWNYDHFSTSDLFFTNYWWNEEDLKRNILNIGLQGVKQKLFVGVDIWGRGSRIGNGGFESGLAINYLKRYSTNVALFAPAWTYENFEEDQFLIKDRKFWIGDQTSDETGGSVATYVSHYTTPVYVKDQNVKFYTNFSVGEGTKYRVFAHTVFKNNWVNGNLQLPTPIIDNEKRIDIYYKESFNGGSSLKVTQRNSILNDGKSNILQLFSFKNDIHSNNLNVSVSFKYLSEIPLNSTFQLEIKFYIERRYRSVTRVRDGTFKLPLAFSNKNWKYIETSFALPRLQIREHFVLEGLQIRWVDNVDELSSSIGTSGDFTESWIIVPQNSDPNAVYELLIGDLLVEGIKTANGNIDAVTKLSRKITLDSRSILATWKDDTEVLYWIIYVNAKFLGIAHKSLWRVQRGDKLRVDVFTRSGKLVKGEDIFI
B4: Endo-Cp: endo-β-N-acetylglucosaminidase from Candida parapolymorpha DL-1 ATCC26012, amino acid sequence SEQ ID NO. 5, 745 amino acids (protein, listed as Candida parapolymorpha)
chain: MPRNTAKHSSLPQTNLPLSSLESSFFDSLDELANWERRIHEKSFELDELNKPTEKLAHYTRARQQSTSEDVKLLVCHDLKGGYQVNEDEDPLGYFPHPDGQHYFLQYPQLVDKFVYFSHHRVSIPPVSWINVCHRNAIKCLGTVIFEGNTYRDFEEADKLLTKQDGEYVFVRCLVALVEYFQFDGYLFNIETRFSNTRIASLLEPFLEQLRAELHVRNPSTELIWYDSYIYPENRVLYKNGVTEANYNFFSCCDSFFTNYWWNVKHLQDNIKNVGVLGSRLKVYAGYDVWGRGTMIGKGGYDSALACQMIKKYRSNVALFAPAWTYEYLARKDFTQNDTRFWIGLFDGESSMATTFKPYSSPLYKINDSNFVFYTNFGSGEGCAFYECGEKVYRDNWVNGSLQMEIPYAIHTRNKNGIQWTLSKEDSFHGGSCVEIKYNEVVDDKGYQVFNNQTINSFSLFSFVQDCSFPTVNVKLTYKLNHKTKSFFKLKIGYYIERRYRTVQKVRSGCLVVPLLSTNDQWFTIEEPFHVSLQNSHEFIVLDSATIFYEETEDPFMRAHVVEDQSTSSVIDNEEYEKLMNSEIYFDDEDEDWILVPSDISMESTDNGGRENHTWKVISNQIRKKHPKSHPSTSPVLKLGELAIINANDYPSDSFFKLMPVNSIDVRRWEGKILLIWKTNQDSVLYHLIFVDDVFQGISLVSKFVFEDQAVDEKSFKTKSGGSTKVRIDTVNRLGILVKGTDM

This series can be described thus: Study of optimal reaction conditions (pH and temperature). The following applies: 10 μM NGA2-Asn-Fmoc; buffers pH 3.5-9.0. Format: biochemical. How it is done:
Study of the optimal reaction pH for Endo-Om was carried out as follows. A reaction solution containing any of various buffers having a final concentration of 100 mM, 0.5 M of NaCl, 10 μM of NGA2-Asn-Fmoc, and an Endo-Om purified enzyme solution (total volume: 10 μl) was incubated at 50° C. for 1 hour, and heated at 95° C. for 5 minutes, thereby stopping the enzyme reaction. The buffers used herein were a sodium citrate buffer (pH 3.5-5.5), a sodium acetate buffer (pH 4.5-6.0), a sodium phosphate buffer (pH 6.0-7.5), a MOPS-NaOH buffer (pH 6.5-8.0), and a Tris-HCl buffer (pH 8.0-9.0). The reaction solution was subjected to HPLC by the method described in Example 4, and the enzymatic activity was calculated. The optimal reaction temperature was studied by changing the reaction temperature in the activity measurement method described in Example 4 in the range of 10° C. to 60° C.
(§1) Study of the optimal reaction pH for Endo-Cp was carried out as follows. A reaction solution containing any of various buffers having a final concentration of 100 mM, 0.5 M of NaCl, 10 μM of NGA2-Asn-Fmoc, and an Endo-Cp partially purified enzyme solution (total volume: 10 μl) was incubated at 30° C. for 3 hours, and heated at 95° C. for 5 minutes, thereby stopping the enzyme reaction. The buffers used herein were a sodium citrate buffer (pH 3.5-5.5), a sodium acetate buffer (pH 4.5-6.0), a sodium phosphate buffer (pH 6.0-7.5), a MOPS-NaOH buffer (pH 6.5-8.0), and a Tris-HCl buffer (pH 8.0-9.0). The reaction solution was subjected to HPLC by the method described in Example 8, and the enzymatic activity was calculated. The optimal reaction temperature was studied by changing the reaction temperature in the activity measurement method described in Example 8 in the range of 10° C. to 70° C.
as §1, with “Endo-Pa” for “Endo-Cp”, “12,” for “8,”, “The optimal reaction temperature was studied by changing the reaction temperature in the activity measurement method described in Example 8 in the range of 10° C. to 70° C.” left out
Study of the optimal reaction pH for Endo-Zr was carried out as follows. […] The reaction solution was subjected to HPLC by the method described in Example 16, and the enzymatic activity was calculated. […]
Turning to B1, the “Optimal pH (optimal reaction pH)” value was 4.5-5.0.

As to B2, the “Optimal pH (optimal reaction pH)” value is on record as “about 5.5”.

For the molecule B3, the “Optimal pH (optimal reaction pH)” value is on record as 5.0-5.5.

As for B4, the “Optimal pH (optimal reaction pH)” value was “about 5.5”.
